Measured values taken from patent US20190233542A1 (WUXI BIOLOGICS IRELAND, published 2019).
Each block holds one binder with its values, some of them ahead of it.

What was measured:
[1] = target: T1, human PCSK9 (Proprotein Convertase Subtilisin/Kexin type 9) (human, UniProt Q8NBP7 31-692, biotin label in the ELISA formats (site not stated)); assay: cell-based or functional assay
human PCSK9-mFc-biotin [2] = target: T2, human PCSK9-mFc-biotin (human, UniProt Q8NBP7 31-692, biotin label (site not stated)); assay: competitive ELISA, blocking of PCSK9 binding to LDL-R
T2 construct: not shown: murine Fc (mFc) fused at the C-terminus

[3] = target: T1, human PCSK9 (Proprotein Convertase …); assay: SPR, Biacore T200, antibody captured, PCSK9 as analyte
Method: (§1) Antibody binding affinity to human and rhesus PCSK9 was detected by SPR assay using Biacore T200. Each antibody was captured on a Protein A or or anti-human IgG Fc antibody immobilized CM5 sensor chip (GE). Human or rhesus PCSK9 at different concentrations were injected over the sensor chip at a flow rate of 30 μL/min for an association phase of 180 s, followed by 1200 s dissociation. The chip was regenerated by 2 M MgCl₂ after each binding cycle.
(§2) The sensorgrams for blank surface and buffer channel were subtracted from the test sensorgrams. The experimental data was fitted by 1:1 model using Langmiur analysis. Molecular weight of 85 KDa was used to calculate the molar concentration of analyte.
(§3) Kinetic affinities of antibody leads were measured by SPR assay.

rhesus PCSK9 = target: T3, rhesus PCSK9 (rhesus, UniProt A8T666 31-692, limits assumed); assay: SPR, Biacore T200, antibody captured, monkey PCSK9 as analyte
T3 construct: A rhesus PCSK9-His from Sino Biological is named only for the ELISA of Section 4.3.2; also called monkey PCSK9; rhesus PCSK9-His
Method: as §1, §2, §3

[4] = target: T1, human PCSK9 (Proprotein Convertase …); assay: binding ELISA on human PCSK9
[5] = target: T1, human PCSK9 (Proprotein Convertase …); assay: cell-based or functional assay; remark: listed apart in the source
[6] = target: mutant human PCSK9 (D374Y) (human, UniProt Q8NBP7 31-692); assay: cell-based or functional assay
[7] = target: T1, human PCSK9 (Proprotein Convertase …); assay: SPR
[8] = target: T1, human PCSK9 (Proprotein Convertase …); assay: SPR; remark: listed apart in the source
[9] = target: T1, human PCSK9 (Proprotein Convertase …); assay: ELISA on biotin-labeled PCSK9 captured on streptavidin, antibody diluted from human serum after 0 to 14 days at 37 C
[10] = target: T1, human PCSK9 (Proprotein Convertase …); assay: ELISA on streptavidin-captured PCSK9-biotin
Method: Binding assay by ELISA: Plates (Nunc) were coated with Streptavidin at 1 μg/ml overnight at 4° C. After blocking and washing, 250 ng/ml PCSK9-biotin was added and incubated for 1 h. Then hybridoma supernatants were transferred to the plates and incubate at room temperature for 1 h. The plates were then washed and subsequently incubated with secondary antibody goat anti rat IgG1 HRP (Bethyl) and goat anti rat IgG2b HRP (Bethyl) for 45 min. After washing, TMB substrate was added and the interaction was stopped by 2M HCl. The absorbance at 450 nm was read using a microplate reader (Molecular Device).
The activities of reference antibodies 12H11.1.uIgG4K and 24B9.1.uIgG4L binding to human PCSK9 were confirmed by ELISA (FIG. 29), according to the method described in Section 2.4 Hybridoma screening of EXAMPLE 2.

[11] = target: T1, human PCSK9 (Proprotein Convertase …); assay: SPR, Biacore T200, antibody captured, PCSK9 as analyte; remark: listed apart in the source
Method: as §1, §2

[12] = target: T1, human PCSK9 (Proprotein Convertase …); assay: cell-based or functional assay; remark: listed apart in the source
human PCSK9-mFc-biotin [13] = target: T2, human PCSK9-mFc-biotin; assay: competitive ELISA, blocking of PCSK9-mFc-biotin binding to coated LDL-R
Method: Blocking assay by ELISA: Plates (Nunc) were coated with LDL-R overnight at 4° C. Hybridoma supernatants were mixed with 250 ng/ml PCSK9-mFc-biotin and incubated at 4° C. overnight. After blocking and washing, the mixture were added to the plates and incubated for 1 h. The plates were then washed and subsequently incubated with streptavidin- HRP. After washing, TMB substrate was added and the interaction was stopped by 2M HCl. The absorbance at 450 nm was read using a microplate reader (Molecular Device).
The activities of reference antibodies 12H11.1.uIgG4K and 24B9.1.uIgG4L to blocking the binding of PCSK9 to LDLR were evaluated by competitive ELISA (FIG. 30) according to the methods described in Section 2.4 Hybridoma screening of EXAMPLE 2.

B2: 40409 (hIgG2) (antibody, V domains shown)
VH: QLNLQQSGPGLVNPSQTLSLTCAISGGSVSSNSAAWNWIRQSPSRGLEWLGRIYSRSKWYHDYAVSVKGRITINPDTSKNQFFLQLNSVTPEDTAVYYCARDWETIIWGDDGPNYYNYGLDVWGQGTTVTVSS
VL: DIQMTQSPSSLSASVGDRVTITCRASQGIRNDLGWYQQKPGKAPKRLIYGASSLQSGVPSRFSGSGSGTEFTLTISSLQPEDFATYYCLQHNNYLWTFGQGTKVEIK
IC50 of LDL-uptake restoration, HepG2 cells, PCSK9 (WT) [5]: 38.3 nM
IC50 of LDL-uptake restoration, Huh-7 cells, PCSK9 (WT) [5]: 63.7 nM
IC50 of LDL-uptake restoration, HepG2 cells, PCSK9 (D374Y) [6]: 2.3 nM
IC50 of LDL-uptake restoration, Huh-7 cells, PCSK9 (D374Y) [6]: 2.7 nM

B3: 40409 (hIgG4) (antibody, V domains shown)
VH: B2 VH
VL: B2 VL
notes: human IgG4 constant region
Kd [7]: 0.0523 nM
koff [7]: 9.05e-05 s⁻¹
kon [7]: 1.73e+06 M⁻¹ s⁻¹
IC50 (human PCSK9-mFc-biotin [2]): 1.75 nM
Kd [3]: 0.0523 nM
koff [3]: 9.05e-05 s⁻¹
kon [3]: 1.73e+06 M⁻¹ s⁻¹
Kd (rhesus PCSK9): 0.413 nM
koff (rhesus PCSK9): 0.000939 s⁻¹
kon (rhesus PCSK9): 2.27e+06 M⁻¹ s⁻¹
fold further affinity improvement (over B4G2) [8]: 2 fold
fold higher affinity compared to BMK.115 [8]: 2 fold
EC50 [4]: 0.024 nM

B6: 19.3.8-uAb1-IgG4L (antibody, V domains shown)
VH: QVQLVQSGAEVKKPGASVKVSCKASGYTFTGYYINWVRQAPGQGLEWMGRINPNSGGTNYAQKFQGRVTMTRDTSINTAYMELSRLRSDDTAVYFCASWEGTVTTWDFYYYYGMDVWGQGTTVTVSS
VL: QSALTQPASVSGSPGQSITISCTGTSSDVDTYNYVSWYQHHPGKAPKLIIFDVSNRPSGVSNRFSGSKSGNTASLTISGLQAEDEADYYCSSYTSSSTLVVFGGGTKLTVL
notes: human IgG4 constant region, lambda light chain
IC50, LDL-uptake assay in HepG2 [1]: 115 nM
IC50 (human PCSK9-mFc-biotin [2]): 2 nM
Kd [3]: 17.5 nM
koff [3]: 0.000271 s⁻¹
kon [3]: 15400 M⁻¹ s⁻¹
Kd (rhesus PCSK9): 7.16 nM
koff (rhesus PCSK9): 0.00441 s⁻¹
kon (rhesus PCSK9): 616000 M⁻¹ s⁻¹
EC50 [4]: 0.13 nM

Continued by falling IC50 (human PCSK9-mFc-biotin [2]), values first:

IC50, LDL-uptake assay in HepG2 [1]: 106 nM
IC50 (human PCSK9-mFc-biotin [2]): 1.67 nM
Kd [3]: 3.42 nM
koff [3]: 4.68e-05 s⁻¹
kon [3]: 13700 M⁻¹ s⁻¹
Kd (rhesus PCSK9): 20.5 nM
koff (rhesus PCSK9): 0.00226 s⁻¹
kon (rhesus PCSK9): 110000 M⁻¹ s⁻¹
EC50 [4]: 0.036 nM
B1: 17.72.3-uAb2-IgG4K (antibody, V domains shown)
VH: QVQLQESGPGLVKPSGTLSLTCAVSGGSIRSYNWWSWVRQPPGEGLEWIGEIHHSGTTNYNPSLKSRVTISVDKSKNQFSLKLSSVTAADTAVYYCARDYSGSYFDYWGQGTLVTVSS
VL: EVVLTQSPATLSLSPGERATLSCRTSQSLSSYVAWSQQKPGQAPRLLIYDASKRATGVPARFSGSGSGTDFTLTISNLEPEDFAVYYCHQRGNWMSSFGQGTKLEIK
notes: human IgG4 constant region, kappa light chain

IC50 (human PCSK9-mFc-biotin [2]): 1.22 nM
Kd [3]: 0.589 nM
koff [3]: 0.000146 s⁻¹
kon [3]: 248000 M⁻¹ s⁻¹
EC50 (read off the curve) [9]: ~0.1 nM
EC50 [10]: 0.034 nM
Kd [11]: 0.0688 nM
koff [11]: 4.47e-05 s⁻¹
kon [11]: 649000 M⁻¹ s⁻¹
Kd (rhesus PCSK9): 0.0371 nM
koff (rhesus PCSK9): 3.19e-05 s⁻¹
kon (rhesus PCSK9): 861000 M⁻¹ s⁻¹
IC50 of LDL-uptake restoration, HepG2 cells, PCSK9 (WT) [5]: 65.1 nM
IC50 of LDL-uptake restoration, Huh-7 cells, PCSK9 (WT) [5]: 76.1 nM
IC50 of LDL-uptake restoration, HepG2 cells, PCSK9 (D374Y) [6]: 10.8 nM
IC50 of LDL-uptake restoration, Huh-7 cells, PCSK9 (D374Y) [6]: 5.2 nM
EC50, LDL-uptake assay in HepG2 [12]: 156 nM
EC50 [4]: 0.028 nM
IC50 (human PCSK9-mFc-biotin [13]): 0.97 nM
B4: 18.156.8 (hIgG4) (antibody, V domains shown)
VH: QVQLVESGGGVVQPGRSLRLSCAASGFTFSSYGMHWVRQAPGKGLEWMAVIWYDGTNKYYADSVKGRFTISRDNSKNTVYLQMNSLRAEDTAVYYCAREKGLDWGQGTLVTVSS
VL: not shown
notes: as for B1

IC50, LDL-uptake assay in HepG2 [1]: 80 nM
IC50 (human PCSK9-mFc-biotin [2]): 1.12 nM
Kd [3]: 0.25 nM
koff [3]: 8.09e-05 s⁻¹
kon [3]: 324000 M⁻¹ s⁻¹
Kd (rhesus PCSK9): 0.687 nM
koff (rhesus PCSK9): 0.00031 s⁻¹
kon (rhesus PCSK9): 452000 M⁻¹ s⁻¹
EC50 [4]: 0.031 nM
B5: 15.14.2-uAb-IgG4L (antibody, V domains shown)
VH: EVQMLESGGGLVQPGGSLRLSCAVSGFTFSRFAMSWVRQAPGKGLDWVSSISDNAGRTYFADSVKGRFTISRDNSKNTLYLQMNSLRADDTAVYYCAKLSNWGPYGMDVWGQGTTVTVSS
VL: QSALTQPPSASGSPGQSVTISCTGTSSDVGYYNYVSWYQQHPGEAPKLMIYEVNKRPSGVPDRFSGSKSGSTASLTVSGLQAVDEADYYCSSYAGSKNFVVFGGGTKLTVL
notes: as for B6
